In publication PMC7585440, “Sclerostin inhibits Wnt signaling through tandem interaction with two LRP6 ectodomains” (Nature Communications, 2020):
Where a chain is given by its changes, count along the chain named. Names and notes keep the numbering of the source. Each block holds one binder with its values, some of them ahead of it. Bridges are numbered along the chain shown (N, C = ends). Where no end group is shown, it is not given here.

Legend:
Conditions in all cases: both partners purified
[1] = biological target: T1, human LRP6 E1E2 (P21-P630) with a C-terminal 10x His tag (human, UniProt O75581 21-630, labeled with the dye NT-647 in the MST experiments (legends: Cy-5 dye-labeled)); test: MST; labeled LRP6 E1E2 or LRP6 E1 (~5 nM) titrated with unlabeled Smo-SOST, MBP-SOST, tags or peptides; 20 mM Tris-Cl pH 7.0, 200 mM NaCl, 0.5 mg/ml BSA, 0.05% Tween 20; 22 °C; three independent experiments
T1 construct: low-density lipoprotein receptor-related protein 6 (LRP6), human, ectodomains E1 and E2, residues P21-P630; also called LPR6 E1E2; source: High Five insect cells, secreted, purified (Ni-NTA, HiTrapQ, SEC); for the crystal co-expressed with SOSTtr177
T1 sequence (looked up): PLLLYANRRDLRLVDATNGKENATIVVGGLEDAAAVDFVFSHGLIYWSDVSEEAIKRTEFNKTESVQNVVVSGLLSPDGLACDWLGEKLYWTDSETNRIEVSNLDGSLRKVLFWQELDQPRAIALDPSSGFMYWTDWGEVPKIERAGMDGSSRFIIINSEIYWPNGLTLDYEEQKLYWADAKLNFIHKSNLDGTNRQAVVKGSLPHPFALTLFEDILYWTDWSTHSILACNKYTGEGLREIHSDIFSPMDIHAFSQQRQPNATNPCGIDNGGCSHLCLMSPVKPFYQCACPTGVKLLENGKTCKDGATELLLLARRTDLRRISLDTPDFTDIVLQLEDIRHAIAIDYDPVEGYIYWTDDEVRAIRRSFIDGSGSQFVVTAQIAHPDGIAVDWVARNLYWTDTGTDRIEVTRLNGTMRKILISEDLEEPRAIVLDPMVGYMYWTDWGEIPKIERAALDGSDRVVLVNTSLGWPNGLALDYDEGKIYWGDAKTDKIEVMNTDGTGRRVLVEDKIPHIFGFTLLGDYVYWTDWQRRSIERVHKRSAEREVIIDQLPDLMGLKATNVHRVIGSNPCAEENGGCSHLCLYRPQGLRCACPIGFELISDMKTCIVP

[2] = biological target: T2, human LRP6 E1E2 with a C-terminal 10× His tag, labeled with the dye NT-647 (human, UniProt O75581 21-630, dye NT-647 (Monolith NT Protein Labeling kit)); test: MST; LRP6 E1E2 or E1 labeled with NT-647 at ~5 nM, unlabeled SOST proteins or peptides titrated; 20 mM Tris-Cl pH 7.0, 200 mM NaCl, 0.5 mg/ml BSA, 0.05% Tween 20; 22 °C; Monolith NT.115 Pico
T2 construct: Low-density lipoprotein receptor-related protein 6 (LRP6), human, ectodomains E1 and E2; the limits P21-P630 are printed for the co-expression construct; the MST construct was cloned into another vector (pAcGP67A); also called Labeled LRP6 E1E2; source: High Five insect cells (pAcGP67A), purified (Ni-NTA, HiTrapQ, SEC), no tag cleavage; not shown: His10, C-terminal, kept
T2 sequence (looked up): T1 sequence (looked up)

[3] = biological target: T3, human LRP6 E1 with a C-terminal 10× His tag, labeled with the dye NT-647 (human, dye NT-647 (Monolith NT Protein Labeling kit)); test: as above
T3 chain: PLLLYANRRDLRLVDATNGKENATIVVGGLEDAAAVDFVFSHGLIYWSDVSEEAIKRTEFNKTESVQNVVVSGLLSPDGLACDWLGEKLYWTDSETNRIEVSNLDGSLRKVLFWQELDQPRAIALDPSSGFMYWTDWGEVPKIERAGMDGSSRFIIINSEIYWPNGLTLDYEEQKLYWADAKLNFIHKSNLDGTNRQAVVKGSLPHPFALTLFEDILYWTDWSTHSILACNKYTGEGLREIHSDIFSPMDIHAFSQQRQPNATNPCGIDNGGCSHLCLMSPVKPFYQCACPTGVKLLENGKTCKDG

[4] = biological target: T4, human LRP6 E1 (P21-D325) with a C-terminal His tag (human, UniProt O75581 21-325, labeled with the dye NT-647 in the MST experiments (legends: Cy-5 dye-labeled)); test: MST; labeled LRP6 E1E2 or LRP6 E1 (~5 nM) titrated with unlabeled Smo-SOST, MBP-SOST, tags or peptides; 20 mM Tris-Cl pH 7.0, 200 mM NaCl, 0.5 mg/ml BSA, 0.05% Tween 20; 22 °C; three independent experiments
T4 construct: low-density lipoprotein receptor-related protein 6 (LRP6), human, ectodomain E1, residues P21-D325; The methods name a 10x His tag; also called LPR6 E1; source: High Five insect cells, secreted, purified (Ni-NTA, HiTrapQ, SEC)
T4 sequence (looked up): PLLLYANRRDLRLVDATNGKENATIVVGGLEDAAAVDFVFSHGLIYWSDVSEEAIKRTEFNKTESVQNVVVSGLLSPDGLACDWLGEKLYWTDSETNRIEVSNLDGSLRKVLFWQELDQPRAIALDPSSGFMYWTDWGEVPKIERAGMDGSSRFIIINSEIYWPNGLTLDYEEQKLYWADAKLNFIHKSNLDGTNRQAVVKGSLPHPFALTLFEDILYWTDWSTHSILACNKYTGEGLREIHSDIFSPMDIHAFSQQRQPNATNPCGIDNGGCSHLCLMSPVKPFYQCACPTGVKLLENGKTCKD

LRP6 E1E2 H404K = biological target: T5, LRP6 E1E2 H404K (human, UniProt O75581 21-630, H404K); test: cross-linking; purified LRP6 E1E2 H404K–SOST_(tr177) N175K complex with BS3 at room temperature for 30 min; ~90 kDa band cut out, chymotrypsin, LC-MS/MS
T5 construct: Low-density lipoprotein receptor-related protein 6 (LRP6), human, ectodomains E1 and E2 (parent construct P21-P630) with H404K; Mutation introduced into the LRP6 E1E2 of the crystallised complex; also called LRP6 E1E2 with the H404K mutation; source: purified as a complex with SOST_(tr177) N175K
T5 sequence (looked up): T1 sequence (looked up) with H384K

[5] = biological target: T6, human LRP6 E1E2 (P21–P630) with a C-terminal 10× His tag (human, UniProt O75581 21-630); test: SEC-MALS; purified complex at 1 mg/ml on Superdex 200 increase 5/150 GL; 50 mM Tris pH 8.5, 150 mM NaCl; protein conjugate method
T6 construct: Low-density lipoprotein receptor-related protein 6 (LRP6), human, ectodomains E1 and E2, residues P21-P630; Unlabelled form: crystal, SEC-MALS and fluorescence-SEC; An anti-His-tag antibody was used for the western blots of the fluorescence-SEC experiment; also called LRP6 ectodomains 1 and 2; source: High Five insect cells (baculovirus), secreted, purified (Ni-NTA, HiTrapQ, SEC); co-expressed …
T6 sequence (looked up): T1 sequence (looked up)

B1: human SOSTtr187 (Q24-A187) with an N-terminal His6-SUMO tag (domain or fragment)
chain: QGWQAFKNDATEIIPELGEYPEPPPELENNKTMNRAENGGRPPHHPFETKDVSEYSCRELHFTRYVTDGPCRSAKPVTELVCSGQCGPARLLPNAIGRGKWWRPSGPDFRCIPDRYRAQRVQLLCPGGEAPRARKVRLVASCKCKRLTRFHNQSELKDFGTEAA
notes: sclerostin (SOST), human, residues Q24-A187; also called Smo-SOSTtr187; source: High Five insect cells, secreted, purified; tag not cleaved; not shown: His6, N-terminal, kept; SUMO, N-terminal, kept
Kd [1]: 600 nM

B4: human WT SOST (Q24-Y213) with an N-terminal His6-SUMO tag (natural protein)
chain: QGWQAFKNDATEIIPELGEYPEPPPELENNKTMNRAENGGRPPHHPFETKDVSEYSCRELHFTRYVTDGPCRSAKPVTELVCSGQCGPARLLPNAIGRGKWWRPSGPDFRCIPDRYRAQRVQLLCPGGEAPRARKVRLVASCKCKRLTRFHNQSELKDFGTEAARPQKGRKPRPRARSAKANQAELENAY
notes: sclerostin (SOST), human, residues Q24-Y213; also called Smo-SOST; Smo-SOST WT; source: High Five insect cells, secreted, purified; tag not cleaved; not shown: His6, N-terminal, kept; SUMO, N-terminal, kept
Kd [4]: 780 nM

B5: human WT SOST (Q24-Y213) with an N-terminal His6-MBP tag (natural protein)
chain: B4 chain
notes: sclerostin (SOST), human, residues Q24-Y213; also called MBP-SOST; MBP-SOST WT; source: High Five insect cells, secreted, purified; tag not cleaved; not shown: His6, N-terminal, kept; MBP, N-terminal, kept
Kd [1]: 170 nM

B9: human SOSTtr204 (Q24-A204) with an N-terminal His6-SUMO tag (domain or fragment)
chain: QGWQAFKNDATEIIPELGEYPEPPPELENNKTMNRAENGGRPPHHPFETKDVSEYSCRELHFTRYVTDGPCRSAKPVTELVCSGQCGPARLLPNAIGRGKWWRPSGPDFRCIPDRYRAQRVQLLCPGGEAPRARKVRLVASCKCKRLTRFHNQSELKDFGTEAARPQKGRKPRPRARSAKA
notes: sclerostin (SOST), human, residues Q24-A204; also called Smo-SOSTtr204; source: High Five insect cells, secreted, purified; tag not cleaved; not shown: His6, N-terminal, kept; SUMO, N-terminal, kept
Kd [1]: 290 nM

B11: human SOSTtr178 (Q24-E178) with an N-terminal His6-SUMO tag (domain or fragment)
chain: QGWQAFKNDATEIIPELGEYPEPPPELENNKTMNRAENGGRPPHHPFETKDVSEYSCRELHFTRYVTDGPCRSAKPVTELVCSGQCGPARLLPNAIGRGKWWRPSGPDFRCIPDRYRAQRVQLLCPGGEAPRARKVRLVASCKCKRLTRFHNQSE
notes: sclerostin (SOST), human, residues Q24-E178; also called Smo-SOSTtr178; source: High Five insect cells, secreted, purified; tag not cleaved; not shown: His6, N-terminal, kept; SUMO, N-terminal, kept
Kd [1]: 680 nM

Results, then the binder that gave them:

Kd [2]: 1000 nM
B2: SOST∆loop2 with an N-terminal His6-SUMO tag (natural protein)
chain: QGWQAFKNDATEIIPELGEYPEPPPELENNKTMNRAENGGRPPHHPFETKDVSEYSCRELHFTRYVTDGPCRSAKPVTELVCSGQCGPAGSGGSGPDFRCIPDRYRAQRVQLLCPGGEAPRARKVRLVASCKCKRLTRFHNQSELKDFGTEAARPQKGRKPRPRARSAKANQAELENAY

Kd [3]: 5200 nM | Kd [2]: 5500 nM
B3: disulfide-bonded, circularized SOST loop 2 peptide (CLLPNAIGRGKWGC) (peptide)
peptide: CLLPNAIGRGKWGC
modifications: disulfide 1-14 (inferred)
notes: first cysteine of the printed peptide, for the ring-closing disulfide; last two residues of the printed peptide, with the second cysteine of the disulfide; source: synthetic peptide (Peptron)

Kd [1]: 680 nM
B6: human SOSTtr177 (Q24-S177) with an N-terminal His6-SUMO tag (domain or fragment)
chain: QGWQAFKNDATEIIPELGEYPEPPPELENNKTMNRAENGGRPPHHPFETKDVSEYSCRELHFTRYVTDGPCRSAKPVTELVCSGQCGPARLLPNAIGRGKWWRPSGPDFRCIPDRYRAQRVQLLCPGGEAPRARKVRLVASCKCKRLTRFHNQS
notes: sclerostin (SOST), human, residues Q24-S177; also called Smo-SOSTtr177; source: High Five insect cells, secreted, purified; tag not cleaved; not shown: His6, N-terminal, kept; SUMO, N-terminal, kept

binding result (LRP6 E1E2 H404K): binds
B7: SOST_(tr177) N175K (domain or fragment, human, UniProt Q9BQB4 24-177, looked up)
chain: B6 chain with N152K
notes: Sclerostin (SOST), human, residues Q24-S177 (parent SOST_(tr177)) with N175K; also called SOSTtr177 with the N175K mutation; source: purified as a complex with LRP6 E1E2 H404K

stoichiometry N [5]: 1
B8: human SOST_(tr177) (Q24-S177) (domain or fragment, UniProt Q9BQB4 24-177, looked up)
chain: B6 chain
notes: Sclerostin (SOST), human, residues Q24-S177; N175 not glycosylated in this construct; also called crystallization construct; not shown: His6, N-terminal, cleaved; MBP, N-terminal, cleaved

Kd [2]: 5800 nM
B10: human SOST C-terminal tail peptide (residues 170–213) (peptide)
chain: not shown

Kd [4]: 870 nM
B12: human SOSTtr169 (Q24-R169) with an N-terminal His6-SUMO tag (domain or fragment)
chain: QGWQAFKNDATEIIPELGEYPEPPPELENNKTMNRAENGGRPPHHPFETKDVSEYSCRELHFTRYVTDGPCRSAKPVTELVCSGQCGPARLLPNAIGRGKWWRPSGPDFRCIPDRYRAQRVQLLCPGGEAPRARKVRLVASCKCKR
notes: sclerostin (SOST), human, residues Q24-R169; also called Smo-SOSTtr169; source: High Five insect cells, secreted, purified; tag not cleaved; not shown: His6, N-terminal, kept; SUMO, N-terminal, kept

Kd [2]: 900 nM
B13: SOST_(tr169) with an N-terminal His6-SUMO tag (domain or fragment, human, UniProt Q9BQB4 24-169, looked up)
chain: B12 chain
notes: has neither the HNQS region nor the basic-residue cluster; also called Smo-SOST mutant tr169; source: High Five insect cells (pAcGP67A), purified (Ni-NTA, HiTrapQ, SEC), no tag cleavage; not shown: His6, N-terminal, kept; SUMO, N-terminal, kept
